Measurements taken from the supplement of paper PMC12667976.
± gives the standard error.

B1: library; numbered along this chain (parent)
chain: MATDAALRRLLRLHRTEIAVAVDSAFPLLHALADHDVVPEDKFQETLHLKEKEGCPQAFHALLSWLLTQDSTAILDFWRVLFKDYNLERYGRLQPILDSFPKDVDLSQPRKGRKPPAVPKALVPPPRLPTKRKASEEARAAAPAALTPRGTASPGSQLKAKPPKKPESSAEQQRLPLGNGIQTMSASVQRAVAMSSGDVPGARGAVEGILIQQVFESGGSKKCIQVGGEFYTPSKFEDSGSGKNKARSSSGPKPLVRAKGAQGAAPGGGEARLGQQGSVPAPLALPSDPQLHQKNEDECAVCRDGGELICCDGCPRAFHLACLSPPLREIPSGTWRCSSCLQATVQEVQPRAEEPRPQEPPVETPLPPGLRSAGEEVRGPPGEPLAGMDTTLVYKHLPAPPSAAPLPGLDSSALHPLLCVGPEGQQNLAPGARCGVCGDGTDVLRCTHCAAAFHWRCHFPAGTSRPGTGLRCRSCSGDVTPAPVEGVLAPSPARLAPGPAKDDTASHEPALHRDDLESLLSEHTFDGILQWAIQSMARPAAPFPS

Variants of: B1
Experiment: AIRE transcriptional activation functional score (insulin promoter-GFP; nonsense median 0, synonymous median 1) (normalised score); higher = higher AIRE activity (more reporter activation)
Details: with insulin promoter-GFP reporter in HEK293
In short: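 Functional scores come from comparing select with non-select enrichment of each variant and subtracting wild type. Codon-optimized AIRE NNN-codon libraries across three regions were integrated via Bxb1 recombinase into HEK293 landing-pad cells with an insulin core promoter-GFP reporter, and integrants sorted at day 7 were expanded 7 days before top 10% GFP and unselected populations were tile-sequenced. Variants needed 10 counts per million in non-select, and values were rescaled to nonsense median 0 and synonymous median 1 before averaging over biological replicates.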

AIRE transcriptional activation functional score of substitutions, site by site:
P367: K 1.04 ± 0.03, L 0.763 ± 0.36, M 0.302 ± 0.086, N 0.956 ± 0.17, Q 1.26 ± 0.22, R 1.06 ± 0.38, S 1.13 ± 0.32, T 1.17 ± 0.21, V 0.854 ± 0.29, W 1.97 ± 0.069, Y 1.39 ± 0.13
P368: A 1.2 ± 0.26, C 1.55 ± 0.16, D 0.975 ± 0.089, E 0.965 ± 0.12, F 1.63 ± 0.14, G 1.05 ± 0.075, H 1.18 ± 0.18, I 1.29 ± 0.21, K 1.38 ± 0.13, L 1.01 ± 0.23, N 1.58 ± 0.068, Q 0.776 ± 0.12, R 1.04 ± 0.22, S 1.27 ± 0.2, T 0.983 ± 0.41, V 1.13 ± 0.21
G369: A 0.861 ± 0.17, C 1.25 ± 0.12, D -0.344 ± 0.25, E 1.68 ± 0.059, F 1.46 ± 0.06, I 1.18 ± 0.37, K 1.35 ± 0.088, L 1.46 ± 0.17, N 1.1 ± 0.061, Q 1.43 ± 0.18, R 0.772 ± 0.1, S 0.939 ± 0.38, T 0.912 ± 0.61, V 0.854 ± 0.23, W 0.914 ± 0.18, Y 0.617 ± 0.046
L370: A 0.668 ± 0.14, C 1.12 ± 0.091, D 0.434 ± 0.36, E -0.238 ± 0.062, F 0.823 ± 0.19, G 1.08 ± 0.16, H 0.944 ± 0.2, I 1.25 ± 0.1, K 0.92 ± 0.34, P 1.08 ± 0.096, Q 0.241 ± 0.24, R 0.586 ± 0.23, S 1.32 ± 0.2, T 1.03 ± 0.069, V 1.03 ± 0.26, W 0.504 ± 0.13
R371: D 1 ± 0.1, G 1.55 ± 0.068, I 0.173 ± 0.21, L 1.5 ± 0.095, M -0.128 ± 0.13, P 0.614 ± 0.2, S 0.653 ± 0.24, T 0.753 ± 0.3, V 1.27 ± 0.094, W 1.77 ± 0.072, Y 1.39 ± 0.15
S372: A 1.16 ± 0.27, C 1.31 ± 0.069, D 1.06 ± 0.14, E 1.3 ± 0.15, F 1.02 ± 0.32, G 0.89 ± 0.1, H 1.13 ± 0.12, I 0.653 ± 0.77, K 1.48 ± 0.092, L 0.938 ± 0.21, N 1.2 ± 0.039, P 1.07 ± 0.29, R 1.16 ± 0.086, T 0.951 ± 0.35, V 1.33 ± 0.1, W 1.62 ± 0.065, Y 1.25 ± 0.4
A373: D 1.02 ± 0.22, E 1.28 ± 0.12, F 0.264 ± 0.082, G 0.987 ± 0.39, H 1.23 ± 0.066, I 0.836 ± 0.18, K 1.02 ± 0.2, L 0.776 ± 0.5, P 1.13 ± 0.15, R 0.736 ± 0.065, S 0.969 ± 0.32, T 1.63 ± 0.12, V 0.766 ± 0.28, W -0.241 ± 0.043
G374: A 1.33 ± 0.14, C 1.55 ± 0.21, D 0.16 ± 0.23, F 2.03 ± 0.12, H 0.816 ± 0.16, I 1.18 ± 0.31, K 0.524 ± 0.58, L 1.29 ± 0.14, P 1.1 ± 0.11, R 1.31 ± 0.35, S 1.24 ± 0.3, T 0.972 ± 0.39, V 1.07 ± 0.13, W 1.65 ± 0.042, Y 0.519 ± 0.61
E375: A 1.18 ± 0.045, C 0.539 ± 0.2, D 1.04 ± 0.11, F 1.55 ± 0.084, G 0.999 ± 0.19, H 1.6 ± 0.037, I 1.08 ± 0.42, K 1.35 ± 0.14, L 1.47 ± 0.35, N 1.89 ± 0.1, P 1.21 ± 0.16, Q 1.05 ± 0.13, R 1 ± 0.32, S 0.907 ± 0.36, T 0.785 ± 0.1, V 1.47 ± 0.34, Y 1.51 ± 0.059
E376: A 0.899 ± 0.079, D 0.34 ± 0.18, F 0.443 ± 0.22, G 0.776 ± 0.12, H 1.36 ± 0.072, I 1.36 ± 0.14, K 1.15 ± 0.064, L 1.17 ± 0.17, N 1.32 ± 0.077, P 1.25 ± 0.16, Q 1.62 ± 0.057, R 1.12 ± 0.2, S 1.08 ± 0.19, T 0.984 ± 0.57, V 1.24 ± 0.12, W 1.23 ± 0.12, Y 0.702 ± 0.3
V377: A 0.734 ± 0.31, C 1.32 ± 0.11, D 0.248 ± 0.3, E 1.81 ± 0.17, F 1.15 ± 0.11, G 1.16 ± 0.28, I 1.15 ± 0.11, K 0.952 ± 0.045, L 1.19 ± 0.34, M 0.944 ± 0.28, N 1.2 ± 0.1, P 1.28 ± 0.077, Q 0.854 ± 0.047, R 1.09 ± 0.4, S 0.916 ± 0.21, T 1.37 ± 0.17, W 1.82 ± 0.044
